Experimental data reported in the supplement of paper PMC10567573.

B1: C2CD2L (parent)
chain: LTLKVLRSSSCGDTELLGQATLPV
B2: DFFB (parent)
chain: TLVEAIKEQDGREVDWEYFYGLLF

Variants of: B1
Assay: protein stability index of a GFP-peptide fusion (GPS, HEK-293T) (PSI 1-6); higher = more stable
Conditions: c terminus: a fixed tail appended
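Also: lentivirally expressed fusions sorted by FACS into six bins by GFP to DsRed ratio, PSI derived from sequencing read proportions per bin multiplied by bin number.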

Protein stability index, by site and new letter:
R7: S 1.13; A 1.19; E 1.96; P 2.08; D 2.02; N 1.19; M 2.32; T 2.88; L 3.52; G 1.37; V 1.85; Q 1.33
L16: V 4.08; N 1.92; Q 1.78; P 1.97; A 1.79; M 1.86; H 1.43; G 1.97; T 2.01; C 2.07; Y 1.37; K 1.9
T21: M 2.27; D 1.57; E 1.58; G 2.94; Q 1.58; P 2.22; F 3.74; H 2.21; K 2.08; L 2.39; C 1.68; R 3.3; V 2.34; S 2.06
T14: Q 1.95; R 2.06; M 2.03; D 2.2; H 2.47; G 3.33; C 1.79; P 2.74
L17: E 2.7; G 1.86; C 2.18; K 2.05; P 2.15; W 2.04; Y 1.57; T 1.92; M 1.11; H 1.24
S9: I 2.11; A 1.95; E 1.1; V 1.09; K 1.4; Q 1.43; F 2.54; M 3.09; P 1.71; D 1.72; C 1.76
T2: C 2.32; R 1.64; E 1.92; K 2.17; Q 2.93; Y 2.94; I 2.9; D 1.95
S8: F 4.03
L3: D 3.35; Y 1.59; I 4.28; E 3.55; W 2.45; N 3.56; M 1.46; A 2.59; R 2.63
V5: M 1.75; E 2.82; G 2.52; P 2.38; T 1.83; H 2.27; S 2.11; Q 2.3; Y 2.69; D 2.97; I 2.08
L6: C 1.69; I 2.83; T 1.26; A 3.16; H 2.13; Y 3.33; G 1.96; D 2.47; E 2.49
V24: S 1.98; Q 1.82; D 1.64; P 2.41; T 1.81; N 1.92
K4: H 1.65; C 2.5; E 2.12; S 1.18; G 2.46; F 2.97; P 2.66
P23: A 3.27; G 4.54
L22: K 1.97; G 1.75; V 2.75; Y 3.26; H 1.54; P 1.87; M 1.56; Q 1.28; N 2.32; C 2.52; T 1.75; W 2.21; E 1.74; I 2.36; A 2.46; S 1.61
A20: H 1.23; Q 2.09; L 2.33; I 2.35; D 1.45; W 3.17; R 1.44; T 1.79
G12: M 3.71; S 1.92; I 2.27; Y 1.42; P 1.82; E 1.88; H 1.97; F 3.92; W 3.06; V 1.99
G18: P 2.11; C 2.07; M 2.32; S 1.97; Q 1.78; E 2.26; Y 1.77; K 1.71; N 2.11; R 2.06; F 2.89; H 1.43; D 2.28; V 2.88
Q19: C 4.52; W 3.5; G 1.91; K 2.78; V 1.43; N 3.21; M 3.83; F 3.05; S 2.79; E 2.86; Y 3.56; P 2.06; I 4.42
S10: H 3; I 1.76; V 3.73; N 1.67; M 5.18; Y 3.53; A 3.7; T 3.38; K 3.12; Q 1.78; E 1.75; L 2.44; C 3.45; F 2.93
D13: F 3.62; C 3.28; S 2.38; T 3.72; G 4.31; Q 2.24; W 3.58; Y 2.16; I 3.63
L1: C 2.58; P 2.9; I 2.76; Q 2.96; H 2.24; Y 1.77; D 3.35; S 2.74; M 2.63; A 4.09
C11: T 2.36; L 2.78; D 1.8; E 1.66; Y 3.16; H 1.63; K 2.11; S 3.41; V 2.53; Q 1.43; A 1.55; M 2.48
E15: F 3.12; A 3.85; L 3.22; I 3.24; N 3.3; T 2.83; D 1.41; P 2.61

Variants of: B2
Assay: as above
Conditions: c terminus: a fixed tail appended

Protein stability index, by site and new letter:
R12: I 1.56; V 2.07; N 2.42; A 1.32
G11: E 2.13; Y 1.88; V 2.92; C 2.72; A 1.84
V14: C 1.5; P 1.76; G 2.12; R 1.65; T 2.36
K7: N 1.51; E 2.34; R 1.03; Q 2.16; S 1.31
L23: C 1.6; Q 2.37; K 2.03; F 2.26; E 2.19; Y 2.86; W 2.21
I6: E 2.58; K 2.2; M 1.94; A 2.59; Y 1.81
G21: Q 2.25; C 1.72
F24: I 1.93; A 1.69
E8: P 2.38; K 1.83; Q 1.43
D10: K 2.12; M 1.35
V3: A 1.95; F 2; P 2.16; I 3.34; Y 1.39; D 2.65; G 1.58
T1: L 1.58; N 2.02; F 2.56
L22: H 2.43; I 1.97; S 2.49
Y20: M 2.64; E 1.67; A 2.03; F 1.93; C 1.92; I 1.78; D 2.36
Y18: A 1.92; V 2.34; M 1.94; Q 2.18
W16: I 1.93; R 2.3; K 1.87
F19: I 1.55; W 2.39; P 3.01; A 1.9
Q9: H 2.33; E 2.26
L2: H 1.92
E17: L 2.18; V 2.24; A 2.06; I 1.48; P 1.33; F 1.6
E13: S 1.76
D15: G 1.9; L 1.59; I 2.15; Q 1.78; E 3.52; A 1.44; F 1.93; S 2.12
E4: H 1.97; L 1.93; T 1.58; K 2.99; A 1.37; S 2.62
A5: H 1.98; W 2.84; N 2.11; C 1.95; T 2.88
